Here are results for 1 molecule from US20250064890A1, “PROTEIN COMPOSITIONS FOR THE TREATMENT OF INFLAMMATORY DISEASES” (Unichem Laboratories Limited, priority 2021, published 2025).

Type in all cases: cell-based, human
Assay [1] has as its system oral (buccal) mucosa cells (TR146). How it is done: The protective effect of the recombinant lectin on survival of TR146 cells against 5-FU induced damage was determined using following calculations:
The viability of cells was determined as: % Cell viability=(100−% Cytotoxicity); • where, the percentage cytotoxicity corresponding to each treatment was calculated as: % Cytotoxicity=[(R−X)/R]*100, wherein X=Absorbance of cells treated with 5-FU or radiation damage/TI+5-FU, R=Absorbance of Control cells (Untreated) and Percentage protection was calculated as:
{(Absorbance of TI+5-FU or radiation)−(Absorbance of 5-FU or radiation alone)/(Absorbance of Untreated)−(Absorbance of 5-FU alone)}*100

Assay [2] has the same test system. As to the kind of experiment: Restoration of mitochondrial membrane potential (JC-1) against radiation induced damage. The following applies: for MMP: red/green JC-1 fluorescence ratio. How it is done:
(§1) Oral buccal mucosal cells (TR146) were incubated overnight in 5% CO2 incubator at 37° C. for 24 h. […] After 24 h of treatment, cells were exposed to damage (5-FU 5 mM) for 1.25 h for chemotherapy induced inflammation and exposed to gamma radiation (3.5 kGy) using Cobalt 60 for radiation induced inflammation. After the exposure, the anti-apoptotic effect of SEQ ID NO 2 was determined by restoration of mitochondrial membrane depolarization by JC-1 staining and reduction in apoptotic cell populations (Annexin positive and subG0/G1 cells in cell cycle analysis).
After incubation, the supernatants were discarded and 100 μl of JC1-dye solution (prepared by diluting 1 mM DMSO stock into 10 μM in 1×PBS) was added to each well. The cells were then incubated with the dye in CO2 incubator at 37° C. for 15 min, after which the supernatant was removed, and the cells were washed twice with 1×PBS. 100 μl of 1×PBS was finally added to each well. Red fluorescence (excitation 550 nm, emission 600 nm) and green fluorescence (excitation 485 nm, emission 535 nm) were measured using Biotek Synergy HT plate reader. The mitochondrial membrane potential (Δψm) was calculated as the ratio of intensity of red fluorescence to intensity of green fluorescence.
The percentage increase/restoration in mitochondrial membrane potential (MMP) was calculated as: % Increase=[(R−X)/R]*100 • Where, X=Δψm corresponding to TI+5-FU treated cells or TI+radiation treated cells; R=Δψm corresponding to control cells (FU damaged or Radiation damaged alone)

Assay [3] shares this test system. Kind of assay: Annexin positive cell population against radiation damage. The following applies: for % Apoptotic cells: Annexin positive. The method, then: as §1
To determine the reduction in apoptotic cell populations using annexin-v staining cells were gently harvested into pre-labeled sterile centrifuge tubes and centrifuged at 300×g for 5-7 min. Supernatant were discarded and the pellet was resuspended in 200 μl of fresh culture medium. 100 μl of cell suspension was transferred into pre-labeled sterile centrifuge tubes. 100 μl of Annexin-V reagent was added to each tube and incubated for 30 min at RT in dark. Cells stained for Annexin-V were then transferred into 96-well plates and acquired on flow cytometer (Guava technologies). Percentage of Annexin-V positive cells was calculated as follows:
={[% Annexin positive cells in 5-FU or radiation alone]−[% Annexin positive cells in (TI+5-FU) or (TI+radiation)]/% Annexin positive cells in 5-FU or radiation alone}*100

Assay [4] has the same test system. As to the kind of experiment: Sub(G0/G1) cell population (cell cycle) against radiation induced damage. The following applies: for % Decrease in Apoptotic cells (with respect to control): Sub G0/G1. The method, then: To determine the effect of test item on cell cycle, oral buccal mucosal cells (TR146) were incubated overnight in 5% CO2 incubator at 37° C. for 24 h. […] After 24 h of treatment, cells were exposed to chemotherapy (5-FU 10 mM) for 24 h or radiotherapy (Gamma radiation (3.5 kGy) using Cobalt 60) for 2 h.
After incubation, cells were harvested by trypsinization and processed for Cell cycle assay. Accordingly, cells were harvested into prelabeled centrifuge tubes and centrifuged at 450 g for 5 min at room temperature (RT, low brake). The supernatants were removed carefully and discarded. 1 ml of 1× phosphate buffer saline (PBS) was added to the pellet and resuspended gently to make homogenous suspension. Cells were centrifuged at 450 g for 5 min, RT (low brake). The supernatant was carefully removed leaving behind approx. 100 μl of PBS. Cells were resuspended gently yet thoroughly in residual PBS. Ice-cold 70% ethanol (100 μl) was added drop-wise into cells in each tube while vortexing at low speed (fixation step). Cells stored at 4° C. for 24 h were centrifuged at 450 g for 5 min, RT (low brake). The supernatant was carefully removed without touching the pellet and discarded. 1 ml of 1×PBS was added into pellet and resuspended gently. Cells were incubated for 1 minute at RT. Cells were centrifuged at 450 g for 5 min, RT (low brake). The supernatant was removed carefully without touching the pellet, leaving behind approx. 20-50 μl of PBS. 200 μl of cell cycle reagent was added into each tube. Cells were resuspended gently and mixed. Cells were incubated for 30 min at RT in the dark. The stained samples were transferred into 96-well plates and acquired on flow cytometer (Guava technologies). Percentage of cells in Sub (G0/G1) phase were determined based on the concept that cell cycle reagent contains PI stain, which stains DNA of cells in different phases of cell cycle; Sub (G0/G1), G1, S, G2 and M. Cells in Sub (G0/G1) phase correspond to apoptotic cells. Percent inhibition in apoptotic cells is determined by the formula:
=[(% Sub(G0/G1) cells in 5-FU/radiation alone)−(% Sub(G0/G1) cells in TI+5-FU/radiation)/% Sub(G0/G1) cells in 5-FU/radiation alone]*100

Where [5] appears, read: 100 ng/ml + Radiation (3.5 kGy).
Setting [6] is: 200 ng/ml + Radiation (3.5 kGy).

Like-named read-outs stand apart in the source and are kept apart here.

B1: EGF: positive control (PC-1 in Tables 4, 6, 8) in the radiation damage tests (protein, UniProt P01133 23-1207, looked up)
Pro-epidermal growth factor: PQHWSCPEGTLAGNGNSTCVGPAPFLIFSHGNSIFRIDTEGTNYEQLVVDAGVSVIMDFHYNEKRIYWVDLERQLLQRVFLNGSRQERVCNIEKNVSGMAINWINEEVIWSNQQEGIITVTDMKGNNSHILLSALKYPANVAVDPVERFIFWSSEVAGSLYRADLDGVGVKALLETSEKITAVSLDVLDKRLFWIQYNREGSNSLICSCDYDGGSVHISKHPTQHNLFAMSLFGDRIFYSTWKMKTIWIANKHTGKDMVRINLHSSFVPLGELKVVHPLAQPKAEDDTWEPEQKLCKLRKGNCSSTVCGQDLQSHLCMCAEGYALSRDRKYCEDVNECAFWNHGCTLGCKNTPGSYYCTCPVGFVLLPDGKRCHQLVSCPRNVSECSHDCVLTSEGPLCFCPEGSVLERDGKTCSGCSSPDNGGCSQLCVPLSPVSWECDCFPGYDLQLDEKSCAASGPQPFLLFANSQDIRHMHFDGTDYGTLLSQQMGMVYALDHDPVENKIYFAHTALKWIERANMDGSQRERLIEEGVDVPEGLAVDWIGRRFYWTDRGKSLIGRSDLNGKRSKIITKENISQPRGIAVHPMAKRLFWTDTGINPRIESSSLQGLGRLVIASSDLIWPSGITIDFLTDKLYWCDAKQSVIEMANLDGSKRRRLTQNDVGHPFAVAVFEDYVWFSDWAMPSVMRVNKRTGKDRVRLQGSMLKPSSLVVVHPLAKPGADPCLYQNGGCEHICKKRLGTAWCSCREGFMKASDGKTCLALDGHQLLAGGEVDLKNQVTPLDILSKTRVSEDNITESQHMLVAEIMVSDQDDCAPVGCSMYARCISEGEDATCQCLKGFAGDGKLCSDIDECEMGVPVCPPASSKCINTEGGYVCRCSEGYQGDGIHCLDIDECQLGEHSCGENASCTNTEGGYTCMCAGRLSEPGLICPDSTPPPHLREDDHHYSVRNSDSECPLSHDGYCLHDGVCMYIEALDKYACNCVVGYIGERCQYRDLKWWELRHAGHGQQQKVIVVAVCVVVLVMLLLLSLWGAHYYRTQKLLSKNPKNPYEESSRDVRSRRPADTEDGMSSCPQPWFVVIKEHQDLKNGGQPVAGEDGQAADGSMQPTSWRQEPQLCGMGTEQGCWIPVSSDKGSCPQVMERSFHMPSYGTQTLEGGVEKPHSLLSANPLWQQRALDPPHQMELTQ
modifications: Pro-epidermal growth factor
As to B1, the “% Protection” value was determined as 18% in assay [1] (10 ng/ml + Radiation (3.5 kGy)), 44.4% in assay [1] (50 ng/ml + Radiation (3.5 kGy)), 46.5% in assay [1] (setting [5]) and 8.8% in assay [1] (setting [6]). For the same molecule, the figures for the “% Increase in MMP (with respect to control)” value in assay [2] (50 ng/ml + Radiation (3.5 kGy)), in assay [2] (setting [5]) and in assay [2] (setting [6]) were 41.8%, 33.4% and 18.8%, respectively. Moreover, the MMP is 6.53 in assay [2] (50 ng/ml + Radiation (3.5 kGy)), 6.14 in assay [2] (setting [5]) and 5.47 in assay [2] (setting [6]). For the same molecule, the “% Decrease in Apoptotic cells (with respect to radiation control)” value is 0% in assay [3] (50 ng/ml + Radiation (3.5 kGy)), 35.9% in assay [3] (setting [5]) and −1.5% in assay [3] (setting [6]). For the same molecule, the “% Apoptotic cells” value in assay [3] (50 ng/ml + Radiation (3.5 kGy)) was 13.7%; in assay [3] (setting [5]), 8.8%; in assay [3] (setting [6]) it was 13.9%. The “% Apoptotic cells (Sub G0/G1)” value in assay [4] (50 ng/ml + Radiation (3.5 kGy)) is given as 10.8%; in assay [4] (setting [5]), 16.4%; in assay [4] (setting [6]) it was 30.5%. For the same molecule, the “% Decrease in Apoptotic cells (with respect to control)” value came out at 69.5% in assay [4] (50 ng/ml + Radiation (3.5 kGy)), 53.5% in assay [4] (setting [5]) and 13.7% in assay [4] (setting [6]).
